One data set relates to RBC. In words: Binding to fresh RBC diluted 2500 times, flow cytometry. Conditions: 20 μg ml^−1, FIG. 6f. The protocol:
Similarly, fresh RBC cell was diluted 2500 times, then it was incubated with 20 μg ml^−1 isotype control (human IgG1), hu56di-SIRPα, hu56di-CV1, SIRPα-Fc IgG1 and AB6.12 IgG1, respectively. The results were shown in FIG. 6f, in which serial numbers of 1, 2, 3, 4 and 5 correspond to isotype control, hu56di-SIRPα, hu56di-CV1, SIRPα-Fc IgG1 and AB6.12 IgG1.

The conditions of data set [1]: reported in treated animal; cited from earlier work.
For data set [2] the following is noted: reported after being injected into human; cited from earlier work.
Another data set deals with T1, CD47-muFc (Homo sapiens, UniProt Q08722).
T1 construct: made in house; host or cells: transiently transfected FreeStyle 293F cells (HEK293)
Description: Binding kinetics by bio-layer inferometry (BLI), Octet K2. The source says:
The amino acid sequence of the human CD47 extracellular domain (i.e., the 19th residue to the 141th residue in Q08722) was obtained according to the amino acid sequence of human CD47 (Q08722) in the protein database Uniprot. According to the amino acid sequence of the constant region of murine immunoglobulin gamma1 (P01868) in the protein database Uniprot, the amino acid sequence of muFc (i.e., the 112th residue to the 213th residue in P01868) was obtained. The DNAworks Online Tool (helixweb.nih.gov) was used to design the corresponding coding DNA sequence to obtain the CD47-muFc fusion protein gene, and the DNA fragment was obtained by artificial synthesis. The synthetic gene sequences were cloned into commercial vector pcDNA4/myc-HisA (Invitrogen, V863-20) by Fermentas HindIII and EcoRI. The recombinant plasmids were then sequenced for confirmation, thereby obtaining the plasmid DNA of pcDNA4-CD47-muFc. The amino acid sequences of CD47-muFc is as set forth in SEQ ID NO: 61, and the polynucleotide sequence encoding it is as set forth in SEQ ID NO: 62.
Binding kinetics of a hu56di-SIRPα immunoconjugate or control antibodies (SIRPα-Fc IgG1 and AB6.12 IgG1) were determined by the bio-layer inferometry (BLI) method using Octet K2 system (FortéBio). All experiments were performed at 25° C. under a PBS buffer containing 0.5% BSA and 0.5% Tween 20, pH 7.2. CD47-muFc was immobilized onto AHC Biosensors, which were subsequently used in association (with hu56di-SIRPα, SIRPα-Fc IgG1 or AB6.12 IgG1) and dissociation measurements each performed for a time window of 40 seconds and 300 seconds, respectively. After the above steps, the subtracted binding interference data were applied to the calculations of binding constants using the FortéBio analysis software provided with the instrument.
For orientation: Biolayer interferometry detects binding as a change in optical thickness at a sensor tip.

The subject of another data set is human erythrocytes (RBC). Description: RBC binding in tumor cell / 15-fold excess RBC mix, flow cytometry. The settings on record: tumor cells mixed with 15-fold excess of RBCs, 20 μg/ml, FIG. 6a-6e. Background: Flow cytometry measures light scatter and fluorescence of single cells or particles in a stream.
Data set [3] deals with A375 cell (expressing CD47) and A375-PD-L1 tumor cells (expressing both CD47 and PD-L1). Description: Tumor binding in excess erythrocyte antigen sink, flow cytometry. The settings on record: 15-fold excess of RBCs, FIG. 6a. The protocol:
An important concern about CD47-based therapeutics is the expression of the target on the surface of erythrocyte, which has the potential to act as a large antigen sink and cause hematological toxicity. […] The binding of hu56di-SIRPα to tumor cell in excess human erythrocytes antigen sink was therefore assessed by flow cytometry. A375 cell (expressing CD47) and A375-PD-L1 tumor cells (expressing both CD47 and PD-L1) were mixed with a 15-fold excess of RBCs, and then incubated with 20 μg/ml hu56di-SIRPα, SIRPα-Fc IgG1 or AB6.12 IgG1 or isotype control (human IgG1) at 4° C. for 30 min. Then the cells were washed to remove unbound proteins and incubated with an anti-hlgG Fc gamma specific PE antibody at 4° C. for 20 min. The cells were analyzed by flow cytometry (Life Technology). The gate of erythrocytes was assessed by anti-human CD235a (eBiosciences Cat #12-9987-80).
Then the cells were washed to remove unbound proteins and incubated with an anti-hlgG Fc gamma specific PE antibody at 4° C. for 20 min. The cells were analyzed by flow cytometry (Life Technology). The gate of erythrocytes was assessed by anti-human CD235a (eBiosciences Cat #12-9987-80).

A further data set relates to mouse RBCs. Description: Mouse RBC binding, MC38 tumor cells mixed with 15-fold excess of mouse RBCs. The settings on record: MC38 cells with 15-fold excess of mouse RBCs, 20 μg/ml, FIG. 6g/6h. As for the experimental part:
Similarly, MC38 tumor cells were mixed with a 15-fold excess of mouse RBCs, and then incubated with 20 μg/ml, a-mPD-L1, mSIRPα-Fc, CV1-Fc, mPD-L1-CV1, mPD-L1-mSIRPα or isotype control (human IgG1) at 4° C. for 30 min. Then the cells were washed to remove unbound proteins and incubated with an anti-hlgG Fc gamma specific PE antibody at 4° C. for 20 min. The cells were analyzed by flow cytometry (Life Technology). The gate of erythrocytes was assessed by anti-mouse RBC antibody (abcam Cat #ab106101). In FIG. 6g, serial numbers of 1, 2, 3 and 4 correspond to isotype control (human IgG1), mSIRPα-Fc, a-mPD-L1 and mPD-L1-mSIRPα. In FIG. 6h, serial numbers of 1, 2, 3 and 4 correspond to isotype control (human IgG1), CV1-Fc, a-mPD-L1 and mPD-L1-CV1.

T1 sequence (Q08722 with tags, fused parts or gaps): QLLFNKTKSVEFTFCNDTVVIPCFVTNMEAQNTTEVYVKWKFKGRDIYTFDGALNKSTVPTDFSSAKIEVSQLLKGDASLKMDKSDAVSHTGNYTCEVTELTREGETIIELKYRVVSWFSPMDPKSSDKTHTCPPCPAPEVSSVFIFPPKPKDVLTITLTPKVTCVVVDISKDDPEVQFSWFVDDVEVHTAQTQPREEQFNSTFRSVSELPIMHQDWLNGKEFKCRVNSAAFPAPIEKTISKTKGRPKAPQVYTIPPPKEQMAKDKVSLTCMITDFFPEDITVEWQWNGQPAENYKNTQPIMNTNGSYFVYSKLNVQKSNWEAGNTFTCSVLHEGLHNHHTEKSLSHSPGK

The kon is the rate constant with which the complex forms. Low values mean slow association, high ones fast association. As for “SIRPα-Fc IgG1: reference homodimer: human SIRPα fused via peptide linker to human IgG1 Fc, SEQ ID NO: 69”, the “binding to RBC” value in the data set on RBC was “weaker binding to RBC than hu56di-CV1 and AB6.12 IgG1”. Moreover, in data set [1], the anemia entry is “anemia has been reported”. Besides, in data set [2], the thrombocytopenia entry is on record as “induced thrombocytopenia”. Also, the “binding affinity to CD47 (comparison in words)” value with CD47-muFc (Table 6) is recorded as “comparable binding affinity to CD47”. Further, in the data set with CD47-muFc (association 40 seconds, 25° C.), the “kon” value is 650000 M⁻¹ s⁻¹. Besides, the “kdis” value with CD47-muFc (dissociation 300 seconds, 25° C.) amounted to 0.00377 s⁻¹. The “binding to RBC (MFI)” value in the data set with human erythrocytes (RBC) was “bind to RBC”. The “preference of binding, tumor cells versus RBC” value in data set [3] is “bound tumor cells and RBCs at the same time”.
“mSIRPα-Fc: mouse SIRPα fused via linker to human IgG1-Fc, SEQ ID NO: 152, Group 18”: the “binding to mouse RBC” value with mouse RBCs is listed as “weaker binding to RBC than mPD-L1-CV1”.
